Assay results from publication PMC12753105.

B1: T10 (ssDNA)
DNA: TTTTTTTTTT
B2: SL7 (structured_RNA)
RNA: ACGUGGCUUUGGAGACUCCGUGGAGGAGGUCUUAUCAGAGGCACGU

How the values were obtained:
N (ancestral) [1] = target: T1, N (ancestral) (SARS-CoV-2 (Wuhan-Hu-1), UniProt P0DTC9 1-419); assay: SV-AUC; […], pH 7.50 ([…], pH 7.4; temperature not given; settings: protein: recombinant; tags: 6xHis-TEV, cleaved; chain copies: 2; single strand
N (ancestral) [2] = target: T1, N (ancestral); assay: SV-AUC, mass photometry; […], pH 7.50 ([…], pH 7.4; temperature not given; settings: protein: recombinant; tags: 6xHis-TEV, cleaved; chain copies: 2; hairpin

Row | Binder | binding result (N (ancestral) [1]) | binding result (N (ancestral) [2])
1 | B1 | binds | –
2 | B2 | – | binds
